Values joined by “and” are separate entries in the source; they are usually repeats but may differ in a detail not shown here. Equal entries are not always repeated. *1 amine or outer side, *2 acyl side, *3 side chain or, on linkers, in order; H or OH if unused. Where a SMILES comes first, the peptide text is derived from it. Bridges are numbered along the chain shown (N, C = ends). Where no end group is shown, it is not given here. [ ]: non-standard residue; d: D form. Phe(4-guanidino) = N=C(N)Nc1ccc(C[C@H](N)C(=O)O)cc1; Ala(pyrimidin-5-yl) = N[C@@H](Cc1cncnc1)C(=O)O; X36 = CN([C@@H](Cc1cnn(C)c1)C(=O)[*:2])[*:1]; X8 = CN([C@@H](Cc1ccc(F)nc1)C(=O)[*:2])[*:1]; NMePhe(3-Me) = CN[C@@H](Cc1cccc(C)c1)C(=O)O; X11 = CC(C)(F)CC[C@H](N[*:1])C(=O)[*:2]; X15 = O=C([C@H](Cc1cnccc1F)N[*:1])[*:2]; Phe(3-Me) = Cc1cccc(C[C@H](N)C(=O)O)c1; Phe(2-F) = N[C@@H](Cc1ccccc1F)C(=O)O; NMe3Pal = CN[C@@H](Cc1cccnc1)C(=O)O; X1 = O=C(C12CC(CN[*:1])(C1)C2)[*:2]; X12 = CC(=O)NCCCN(CC(=O)[*:2])[*:1]; NMeCha = CN[C@@H](CC1CCCCC1)C(=O)O; NMeLys(Me) = CNCCCC[C@H](NC)C(=O)O; X41 = COCCC[C@H](N[*:1])C(=O)[*:2]; Ala(cPr) = N[C@@H](CC1CC1)C(=O)O; NMeF = CN[C@@H](Cc1ccccc1)C(=O)O; PhLac = O=C(O)[C@@H](O)Cc1ccccc1; 3Pal = N[C@@H](Cc1cccnc1)C(=O)O; Ahp(2) = CCCCC[C@H](N)C(=O)O; Cba = N[C@@H](CC1CCC1)C(=O)O; hLeu = CC(C)CC[C@H](N)C(=O)O; αMeC = C[C@](N)(CS)C(=O)O; NMeA = CN[C@@H](C)C(=O)O; Nle = CCCC[C@H](N)C(=O)O
How the values were obtained:
[1] = target: phosphorylation levels of ERK1/2 in AsPC-1 (homozygous KRAS-G12D) cells (Homo sapiens, UniProt P01116, G12D); assay: Cellular phospho-ERK assay in AsPC-1 cells (Alpha Screen), assay medium without fetal bovine serum; assay type: cell-based; conditions: phospho-ERK AlphaScreen, 18 h;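 further: signal taken as phospho-ERK over total ERK per well, both detected in one multiplex bead assay, EC50 from four-parameter logistic fit of dose-response curves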
[2] = target: Biotin-labeled KRAS-G12D protein (UniProt P01116-2 1-169, limits assumed, biotin label (site not stated); loaded with BODIPY-GDP); assay: cell-based or functional assay

Row | Molecule | EC50 [1] [nM] | SOS assay EC50 [2]
1 | CON=C1C[C@@H](Cc2ccccc2)C(=O)N(C)[C@@H](C)C(=O)N[C@@H](Cc2cncnc2)C(=O)N[C@@H](CC2CC2)C(=O)N[C@@H](Cc2ccccc2F)C(=O)N[C@@H](CCC(C)(F)F)C(=O)N(C)[C@@H](Cc2ccccc2)C(=O)NCC23CC1(C2)C3 (single isomer, unassigned) [compound 178, cyclo(CPhe-NMeA-PyrimAla-cPrA-Phe2F-Nle3F2-NMeF-MeOximamBCP)] | 128 | 
2 | CCCCC[C@@H]1NC(=O)[C@H](Cc2ccc(OC)cc2)NC(=O)[C@H](CC2CCC2)NC(=O)[C@H](Cc2ccc(NC(=N)N)cc2)NC(=O)CN(CCCNC(C)=O)C(=O)[C@H](Cc2ccccc2)NC(=O)CSC[C@@](C)(C(N)=O)NC(=O)[C@H](Cc2ccccc2)N(C)C1=O [compound 387, cyclo(F-AcApG-Phe4Gn-cBuA-TyrOMe-Ahp-NMcF-aMeCl-ClAc)] ({CH2CO}-F[X12][Phe(4-guanidino)][Cba]Y(Me)[Ahp(2)][NMeF][αMeC]-NH2; thioether N-8) | > 50800 | 
3 | CCCC[C@@H]1NC(=O)[C@H](CCCOC)NC(=O)[C@H](CC2CCC2)NC(=O)[C@H](Cc2cccnc2)NC(=O)[C@H](CCCNC(=N)N)NC(=O)[C@H](Cc2ccccc2)NC(=O)CSC[C@@](C)(C(N)=O)NC(=O)[C@H](Cc2ccccc2)N(C)C1=O [compound 55, cyclo(F-R-3Pal-cBuA-NvaOMe-Nle-NMeF-aMeCl-ClAc)] ({CH2CO}-FR[3Pal][Cba][X41][Nle][NMeF][αMeC]-NH2; thioether N-8) | > 50800 | 
4 | CCCCC[C@@H]1NC(=O)[C@H](Cc2ccc(OC)cc2)NC(=O)[C@H](CC2CCC2)NC(=O)[C@H](Cc2ccc(NC(=N)N)cc2)NC(=O)[C@H](CCCCNC)N(C)C(=O)[C@H](Cc2ccccc2)NC(=O)CSC[C@@](C)(C(N)=O)NC(=O)[C@H](Cc2ccccc2)N(C)C1=O [compound 360, cyclo(F-NMeLysMe-Phe4Gn-cBuA-TyrOMe-Ahp-NMeF-aMeCl-ClAc)] ({CH2CO}-F[NMeLys(Me)][Phe(4-guanidino)][Cba]Y(Me)[Ahp(2)][NMeF][αMeC]-NH2; thioether N-8) | > 50800 | 
5 | C[C@H]1C(=O)N[C@@H](Cc2cncnc2)C(=O)N[C@@H](CC2CCC2)C(=O)N[C@@H](Cc2ccccc2F)C(=O)N[C@@H](CCC(C)(C)F)C(=O)N(C)[C@@H](Cc2ccccc2)C(=O)NCC23CC(C2)(C3)C(=O)O[C@@H](Cc2ccccc2)C(=O)N1C [compound 225, cyclo(FLac-NMeA-PyrimAla-cBuA-Phe2F-hL3F-NMeF-amBCP)] (cyclo([Cba][Phe(2-F)][X11][NMeF][X1][PhLac][NMeA][Ala(pyrimidin-5-yl)])) | 674 | 
6 | CON=C1C[C@@H](Cc2ccccc2)C(=O)N(C)[C@@H](C)C(=O)N[C@@H](Cc2cncnc2)C(=O)N[C@@H](CC2CC2)C(=O)N[C@@H](Cc2ccccc2F)C(=O)N[C@@H](CCC(C)(F)F)C(=O)N(C)[C@@H](Cc2ccccc2)C(=O)NCC23CC1(C2)C3 (single isomer, unassigned) [compound 177, cyclo(CPhe-NMeA-PyrimAla-cPrA-Phe2F-Nle3F2-NMeF-MeOximamBCP)] | 3400 | 
7 | CCCC[C@@H]1NC(=O)[C@H](Cc2cccnc2)NC(=O)[C@H](C)N(C)C(=O)[C@H](Cc2ccccc2)OC(=O)C23CC(CNC(=O)[C@H](CC4CCCCC4)N(C)C(=O)[C@H](CCCC)NC(=O)[C@H](Cc4ccccc4F)NC1=O)(C2)C3 [compound 232, cyclo(FLac-NMeA-3Pal-Nle-Phe2F-Nle-NMeCha-amBCP)] (cyclo([3Pal][Nle][Phe(2-F)][Nle][NMeCha][X1][PhLac][NMeA])) | > 50800 | 
8 | Cc1cccc(C[C@H]2C(=O)NCC34CC(C3)(C4)C(=O)O[C@@H](Cc3ccccc3)C(=O)N(C)[C@@H](C)C(=O)N[C@@H](Cc3cncnc3)C(=O)N[C@@H](CC3CC3)C(=O)N[C@@H](Cc3cnccc3F)C(=O)N[C@@H](CCC(C)C)C(=O)N2C)c1 [compound 278, cyclo(FLac-NMeA-PyrimAla-cPrA-3Pal6F-hL-NMePhe3Me-amBCP)] (cyclo([Ala(cPr)][X15][hLeu][NMePhe(3-Me)][X1][PhLac][NMeA][Ala(pyrimidin-5-yl)])) | 4000 | 
9 | CCCC[C@@H]1NC(=O)[C@H](Cc2cccnc2)NC(=O)[C@H](C)N(C)C(=O)[C@H](Cc2ccccc2)OC(=O)C23CC(CNC(=O)[C@H](Cc4cnn(C)c4)N(C)C(=O)[C@H](CCCC)NC(=O)[C@H](Cc4ccccc4F)NC1=O)(C2)C3 [compound 403, cyclo(FLac-NMeA-3Pal-Nle-Phe2F-Nle-NMeAla4PyzlMe-amBCP)] (cyclo([3Pal][Nle][Phe(2-F)][Nle][X36][X1][PhLac][NMeA])) | 18600 | 
10 | CCCC[C@@H]1NC(=O)[C@H](Cc2cccnc2)NC(=O)[C@H](C)N(C)C(=O)[C@H](Cc2cccc(C)c2)NC(=O)C23CC(CNC(=O)[C@H](Cc4cccnc4)N(C)C(=O)[C@H](CCCC)NC(=O)[C@H](Cc4ccccc4F)NC1=O)(C2)C3 [compound 166, cyclo(Phe3Me-NMeA-3Pal-Nle-Phe2F-Nle-NMe3Pal-amBCP)] (cyclo([3Pal][Nle][Phe(2-F)][Nle][NMe3Pal][X1][Phe(3-Me)][NMeA])) | 32300 | 
11 | CCCC[C@@H]1NC(=O)[C@H](Cc2ccc(C(F)(F)F)nc2)NC(=O)[C@H](CCCn2ccnc2)N(C)C(=O)[C@H](Cc2ccccc2)OC(=O)C23CC(CNC(=O)[C@H](Cc4ccccc4)N(C)C(=O)[C@H](CCCC)NC(=O)[C@H](Cc4ccccc4F)NC1=O)(C2)C3 (single isomer, unassigned) [compound 219, cyclo(FLac-NMeNvaImid-4CF33Pal-Nle-Phe2F-Nle-NMeF-amBCP)] | > 50800 | 
12 | Cc1cccc(C[C@H]2C(=O)NCC34CC(C3)(C4)C(=O)O[C@@H](Cc3ccccc3)C(=O)N(C)[C@@H](C)C(=O)N[C@@H](Cc3cncnc3)C(=O)N[C@@H](CC3CC3)C(=O)N[C@@H](Cc3ccccc3F)C(=O)N[C@@H](CCC(C)(C)F)C(=O)N2C)c1 [compound 274, cyclo(FLac-NMeA-PyrimAla-cPrA-Phe2F-hL3F-NMePhe3Me-amBCP)] (cyclo([Ala(cPr)][Phe(2-F)][X11][NMePhe(3-Me)][X1][PhLac][NMeA][Ala(pyrimidin-5-yl)])) | 604 | 
13 | CC(C)CC[C@@H]1NC(=O)[C@H](Cc2ccccc2F)NC(=O)[C@H](CC2CC2)NC(=O)[C@H](Cc2cncnc2)NC(=O)[C@H](C)N(C)C(=O)[C@H](Cc2ccccc2)OC(=O)C23CC(CNC(=O)[C@H](Cc4ccc(F)nc4)N(C)C1=O)(C2)C3 [compound 339, cyclo(FLac-NMeA-PyrimAla-cPrA-Phe2F-hL-NMe3Pal4F-amBCP)] (cyclo([Ala(cPr)][Phe(2-F)][hLeu][X8][X1][PhLac][NMeA][Ala(pyrimidin-5-yl)])) | 1650 | 
14 | cyclo(F-R-3Pal-cBuA-TyrOMe-AheNMeHag-aMeC-C1Ac) peak 1 (peptide) |  | 1560 nM and 324 nM
15 | cyclo(NMeF-NMeNvaImid-3Pal-Nle-Phe2F-Nle-NMe3Pal-tamcPr) (peptide) |  | 7650 nM
16 | cyclo(F-NH2IMNva-d3Pal-cBuA-Phe2F-Nle-NMe3Pal-amBCP) (peptide) |  | 1.14 nM
17 | cyclo(NMeF-NMeNvalmid-3Pal-Nle-Phe2F-Nle-NMe3Pal-c3amCblc) (peptide) |  | 1220 nM
18 | cyclo(F-R-3Pal-Nle-Phe2F-Nle-NMe3Pal-aMeC7-C1Ac) (peptide) |  | 728 nM
19 | cyclo(F-R~3Pal-cBuA-Phe26F2-Nle-NMe3Pal-aMeC1-C1Ac) (peptide) |  | 4.6 nM
20 | cyclo(F-R-4CF33Pal-cBuA-Phe2F-Nle-NMe3Pal-aMeC1-C1Ac) (peptide) |  | 1.59 nM

Row | Molecule | EC50 [1] [nM] | SOS assay EC50 [2]
21 | cyclo(F-R-3Pal-cBuA-TyrOMe-Nle-NMeF-spiro44) (peptide) |  | 7340 nM
22 | cyclo(F-R-3Pal-cBuA-Phe24F2-Nle-NMe3Pal-aMeC1-C1Ac) (peptide) |  | 1.35 nM
23 | cyclo(F-R-3Pal-cBuA-Phe2F-Nle-NMeF-aMeC1-C1Ac) (peptide) |  | 2 nM
24 | cyclo(dF-R-3Pal-Nie-TyrOMe-Nle-NMeF-c3amCblc) (peptide) |  | 222 nM
25 | cyclo(Phe4NH2-Om-3Pal-cBuA-TyrOMe-Nle-NMe3Pal-daMeC1-C1Ac) (peptide) |  | 1060 nM
26 | cyclo(F-R-3Pal-Nle-TyrOMe-Nle-NMeF-dbhcLeu) (peptide) |  | 949 nM
27 | cyclo(Y-Orn-3Pal-cBuA-TyrOMe-Nle-NMe3Pal-daMeC1-C1Ac) (peptide) |  | 659 nM
28 | cyclo(Phe4F-R-4Pal-L-TyrOMe-Nva-NMeF-dC5-C1Ac) (peptide) |  | 70.2 nM
29 | cyclo(F-R-3Pal-cBuA-TyrOMe-AheNMeAhe-aMeC-C1Ac) (peptide) |  | 900 nM
30 | cyclo(F-R-3Pal-cBuA-TyrOMe-Nle-NMeF-amBCP) (peptide) |  | 5.47 nM
31 | cyclo(F-R-3Pal-Nle-all-Nle-NMe3Pal-aMeC1-C1Ac (peptide) |  | 946 nM
32 | cyclo(F-R-3Pal-cBuA-TyrOMe-RdHagNMeHag-aMeC-C1Ac) (peptide) |  | 299 nM
33 | cyclo(F-R-3Pal-cBuA~TyrOMe-Nle-NMeF-spiro54) (peptide) |  | 656 nM
34 | cyclo(F-R-3Pal-cBuA-AbuF3-Nle-NMeF-aMeC1-C1Ac) (peptide) |  | 861 nM
35 | cyclo(F-NMeNvalmid-3Pal-Nle-Phe2F-LysN3-NMe3Pal-c3amCblc) (peptide) |  | 612 nM
36 | cyclo(F-R-d3Pal-cBuA-Phe2F-Nle-NMe3Pal-amBCP) (peptide) |  | 3.19 nM
37 | cyclo(F-R-4F3Pal-cBuA-Phe2F-Nle-NMe3Pal-daMeC1-C1Ac) (peptide) |  | 1.26 nM
38 | cyclo(INal-R-K-Nle-Phe3AcOH-Nle-NMeF-Cysteamine-C1Ac) (peptide) |  | 2650 nM
39 | cyclo(NMeF-NMeNvalmid-3Pal-Nle-Phe2F-LysN3-NMe3Pal-c3amCb1c) (peptide) |  | 7760 nM
40 | {CH2CO}-FRYLV[Ahp(2)][NMeF][dC] (thioether N-8 (inferred); not fully specified (C-terminus); printed as cyclo(F-R-Y-L-V-Ahp-NMeF-dC-C1Ac)) [cyclo(F-R-Y-L-V-Ahp-NMeF-dC-C1Ac)] |  | 7140 nM
